One molecule from patent US20190144556A1 (published 2019) can be followed below.

Experiment [1] has as its target T1, peptide fragment defined by residues 130-149 of SEQ ID NO: 7 within human TNFR2 (KQEGCRLCAPLRKCRPGFGV) (human).
T1 peptide: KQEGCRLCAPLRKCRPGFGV
Kind of experiment: peptide binding; assay not given.

The target in experiment [2] is T2, linear peptide containing amino acids 112-139 of SEQ ID NO: 7 within human TNFR2 (human).
T2 construct: Linear peptide purchased from GenScript and coated on the plate
T2 peptide: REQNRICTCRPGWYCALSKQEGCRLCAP
Description: ELISA, linear peptide coated at 1 µg/well, antibody 0.1 µg/well. Here is the method: (§1) ELISA was also used to determine linear epitopes present on the extracellular surface of TNFR2. Linear peptides corresponding to various regions within the TNFR2 primary sequence were purchased from GenScript (Piscataway, N.J.), diluted in coating buffer and placed on Immulon 4HBX Flat Bottom Microtiter Plates (Thermo Scientific) at a concentration of 1 μg/well. Primary TNFR2 antagonistic antibodies (0.1 μg/well) were incubated with substrates. Secondary antibodies against rodent IgG were used to detect the primary antibodies. Absorbance was measured using the SPECTRAMAX® 190 Absorbance Plate Reader and analyzed with SoftMax Pro 6.3 (Molecular Devices).
For orientation: In an ELISA, binding on a coated surface is turned into a signal by an enzyme label.

Experiment [3] has as its target T3, linear peptide containing amino acids 128-155 of SEQ ID NO: 7 within human TNFR2 (human).
T3 construct: Linear peptide purchased from GenScript and coated on the plate
T3 peptide: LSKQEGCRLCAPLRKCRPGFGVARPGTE
The description is as above. Here is the method: as §1

A further experiment deals with T4, recombinant human TNFR2 (human, UniProt P20333 23-257, limits assumed).
T4 construct: also called tumor necrosis factor receptor 2; full-length target protein
T4 sequence: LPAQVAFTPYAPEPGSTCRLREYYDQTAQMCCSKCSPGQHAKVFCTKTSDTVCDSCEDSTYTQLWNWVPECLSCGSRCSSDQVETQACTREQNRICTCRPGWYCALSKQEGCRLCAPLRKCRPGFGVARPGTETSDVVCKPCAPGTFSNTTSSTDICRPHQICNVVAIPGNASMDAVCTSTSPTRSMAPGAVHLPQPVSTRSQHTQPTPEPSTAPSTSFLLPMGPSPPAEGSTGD
Description: SPR (BIACORE 3000), biotinylated antibody captured on streptavidin, recombinant human TNFR2 injected. Here is the method: The affinities of antagonistic TNFR2 antibodies for recombinant human TNFR2 were measured using BIACORE™ Analysis Services (Precision Antibody). Briefly, the antibody was biotinylated at a 5:1 stoichiometric ratio using biotinyl-LC-LC-[…] (Thermo-Fisher) in PBS. Excess biotinylation reagent was removed by centrifugation chromatography and the biotinylated antibody was captured on 3000 RU of streptavidin surface to a level of 100 RU. […] Analysis of the kinetics of antigen binding was performed at a flow of 60 μL/min with 2 min injections. Antibodies were injected at a concentration of 1 mg/ml to the final capture of 100 RU. The instrument used was BIACORE™ 3000 with the BioCap chip (GE Healthcare). Double reference method was used for analysis. Reference channel contained the identical level of streptavidin.
In general terms: SPR reads the build-up and loss of mass on a sensor chip optically.

B1: antagonistic TNFR2 antibody TNFRAB1 (antibody, V domains shown)
VH: EVQLQESGGGLVKPGGSLKLSCAASGFTFSSYVMSWVRQTPEKRLEWVATISSGGSYTYYPDSVKGRFTISRDNAKNTLYLQMSSLRSEDTAMYYCARQRVDGYSSYWYFDVWGAGTAVTVSS
VL: DIVLTQSPAIMSASPGEKVTITCSASSSVYYMYWFQQKPGTSPKLWIYSTSNLASGVPVRFSGSGSGTSYSLTISRMEAEDAATYYCQQRRNYPYTFGGGTKLEIKR
notes: Murine monoclonal antibody, full-length IgG; For SPR the antibody was biotinylated and captured on streptavidin; also called TNFR2 antagonist 1
As for B1, the “fold greater affinity than for the peptide fragment defined by residues 48-67 of SEQ ID NO: 7 (…, SEQ ID NO: 18)” value in experiment [1] was determined as 40 fold. In addition, the binding result in experiment [2] is recorded as “binds”. Further, the binding result in experiment [3] is given as “binds”. Also, in the experiment with recombinant human TNFR2, the dissociation constant Kd (as a rule, the constant that tells how readily two partners part at equilibrium) was about 0.0444 nM; the off-rate (koff) (usually the first-order rate constant of dissociation) is 0.000221 s⁻¹; the association rate constant (kon) (usually the second-order rate constant of association) is 4.98e+06 M⁻¹ s⁻¹.
